Source: PMC11188170, “A comprehensive analysis of the WRKY family in soybean and functional analysis of GmWRKY164-GmGSL7c in resistance to soybean mosaic virus”

Biological target: GmWRKY164 (Glycine max, UniProt K7MND9 1-149)
Assay: EMSA; 6 ug protein; 200-fold unlabelled probe used as competitor; LightShift Chemiluminescent EMSA kit binding reaction, 20 min, 6% native PAGE; buffer, salt, pH and temperature not stated
Conditions: protein: recombinant; tags: His; label: 5' biotin; blunt

GmWRKY164, sequence (K7MND9 entry or part of it): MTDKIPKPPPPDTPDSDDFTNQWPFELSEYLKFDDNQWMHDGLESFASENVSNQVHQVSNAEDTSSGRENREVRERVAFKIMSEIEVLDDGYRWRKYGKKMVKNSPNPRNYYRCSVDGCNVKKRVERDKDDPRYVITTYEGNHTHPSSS

B1: GmGSL7c promoter W-box probe (dsDNA)
DNA 1: TAGCCCAACTCATCAGAAGAAGGTCAATGTAATAGTA
DNA 2: TACTATTACATTGACCTTCTTCTGATGAGTTGGGCTA
B1: binds.
